From the domain aggregation screens of Martell et al. (2025)

Test: soluble fraction after stress (log2 fold change); higher = more stays soluble; pooled small domains, quantitative proteomics
Conditions: stress: 50 degC
How it was run: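 After stress at 50°C, the amount of each protein still soluble was measured. This was done on pooled custom libraries of small protein domains, using high-throughput quantitative proteomics. The figure given is a base-two log fold change and stands for aggregation propensity, with higher values meaning more protein stays in solution.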

Sequence | soluble fraction (log2)
HMTVSLLQTRQRLQALADLGHYKGDLGAAWGPDAIEALKKAQATLGVTVDGKWGPQTEDAIQVALKVQ | -0.284
HMTVTISPGYEGRLLRSYLKNTLSLSTSALARLKTREDGITVNGVRVTVRYVLHAGDLLQLAVD | -0.597
HMTVVHRQVHLQPDQGAFRAALYSHKAVLSEQTDDQGAINLEIRLPESDFLRLLNSSGLKLQDLVP | -0.0198
HMTVVSVDDQASASSEAIRTKVAGDSAARMSVDAGGKITWGAGSASGDVTLYRSAANTLKTDDTLVAT | -0.0266
HMTYADTRDLLIRRGMELLTEQGIAATSIERVLQSTGIPKGSFYHYFATKHDFTLAVMDAYHHY | -0.0315
HMTYAQQIGARIAFLRRLKGLTLAELAERVNKHKSTISKYESGQIIIDIESLKEVADALGVDVAQIVE | -0.0214
HMTYFDIAPELLTVYKEINDIPRDINQIVRKTGLSINEVSYKTMILQLEDKIVELPGQRFIRNS | -1.99
HMTYKHLTIDEMKRFLSTREDSQSALVQFARVENVVGNRKGKYAVIKKWFLKNYKEEYNAFLS | -0.17
HMTYPGSIALVNPKHEAFVQHYVATSGSRGQAAKLAGVTTTTARNLLQDVEATARIRYLNAQQFQ | -0.107
HMTYTGTVTGVDEGGLRVRSSTSTENTSNVITKVYTGDTFDVLDTVYNGSAKWYKIGFTYNGTYTYGYVSA | -1.17
HMTYVSVSNYIGTNVDKAKGELESQGLVVLLEEQKTEDKSQDGMVLKQTIEGGTKVSSGSRITLIYGRYT | 0.197
HMVADEGELLAIAREVVAANPKVFEDWKAGKQSAAQWFVGQIMKRTRGRANPQLALKLVTQALEEHAR | 0.0775
HMVAEKSKIEMAIDSINKLAKELADSGVAKKTISDIIKSVSGSANYNKITDFEVATDVYKELVALKNKEDT | 0.384
HMVAESGLPPAFRSTWRHIMQTRGAQLDVLAMRTGTDAASLQKQLHAMELGGWVRRMPGGWYVPLK | -0.736
HMVAFYATPKERGIYDDAETYREGDIVSIADGSRWIYVNPTATAGNDPADGSVYWERMSGAATGP | 0.0147
HMVAGHLQEKKGYFYMVLTYRDHEGKRKSKWLPTGLTIKGNKKRAQDLLQDARKNFVPDIPT | -1.32
HMVAGHLQEKNGYFYIVLNYTNHEGKRKSKWITTGLTVKGNKKRAQDLLQEARKTFVPDIPT | -1.19
HMVAPKDIVMPSFVGKKYTDVVNTPNSSYTFEFKKDEKNSSDYAVGFIMDQKPKAGETVKSNATVTLIVSK | -0.0152
HMVAPNSEATTKLIIEKTKYANESPAILMGFKATATMLMAKHVVLPTSKYAYFNEGRALLEKAIK | -0.0203
HMVAREAYTTQNLTDVFSISRQAVEKRAKREGWQSVPRKGRGGGKLWVVSSMPAETRDLLASLLLRK | -0.609
HMVDALYGQGARVMRDFSEGSGIVKLDNGETWTGRLSPAASGASLYVGDRVIVTRIDGAIAEVTPP | -0.0539
HMVDDNFGLGEVTDQNYLTVLGRALDLIGWTDEQADSYSLKTFGVPHWDELGRSQAEKLVAHLIGLLKEQM | -0.33
HMVDIEQAEFLSRQFDLLLARLDDPTIEWQDIADIRSEYTGENEHRDTIRKGSKLFYEYLQAGWIKN | -0.748
HMVDISLSDRELEVLRLLAMGLSNADISRRLYLSEGTIRNYMSGIFSKLNVSDRTQAVVIALREGLVNL | -0.48
HMVDPAEASKRAREYLDALPADDLKDVIRQFSATLAEGSVVLGYFQRSGLKSKVVKTALEQFVASTILSK | -0.167

Sequence | soluble fraction (log2)
HMVDPAFLAWQQKPENTWFGTDRRKTALAIAIAEEIRNDPANSNLVGAAFYARVAEETEETLN | -0.628
HMVDPWLEQVHRASAAYATAHGSARIPTTHPDLGWKVVRVRQRHRKGLLSDEWVAKFEALPGWTWEPK | -0.282
HMVDQAFQTQLKNIQARTGKNLDELYAFIRASGLVKHGEIRDLAKRELSLGHGDANTLAKFYLESLAAAA | 0.269
HMVDQKLIQASAEHSGIRIDRFLSEQLPEHSRSYIQKLIKDGQVSIGGKAVKSNYKIAGTEEISLLIPDQ | 0.0523
HMVDTSDLPAIVEKVFADNPEQVNDILNGKDRVKGFLVGQIMKATRGQAPPDEVNKLIDATLEKMKAA | 0.0819
HMVDYIGRRGVMLSTVSEEKMGNAEVVIDGNSYNIYVKSLDGSTIAYHQEILIINKSKDNNYFLVQIY | -2.63
HMVEAIDQALIEKQIQAVLQENSAAVKKYQAGKTEVLAFLIGQSMRKIAKKVDANLVKNILLEQLKNK | 0.0542
HMVEDFSEVLLQYIREQGGAIALNDKTDAGVIYDTFGVSKKTFKKAVGDLYKKRLIVLGDEGIRLA | -0.619
HMVEIGENIKKLRKAKRMTQKEVANQLNVTPQTISKWERNISYPDLDMLVKLSQLFHISTDALL | -0.0765
HMVELNDNEKIVYDILKETEKIHIDELTAKVQLTQSILSGALVQMEMKGMIVSLPGKMYKLL | -0.132
HMVELRDGSLPLARGSVGDLVAEVQRKLGVAADGIFGPQTERAVRAFQARAGLASDGIVGPLTWSALFGA | -0.282
HMVELVKVPALQGETVDEAIADIKDAGLEPGQVRYVESDLPKDTVTYQSVDAGEQVKAGTVINLQASKGP | 0.251
HMVEMSNMELVREQYFQNLIYNVGDWVKDSKTEITGEVVKRGTNYLTIVQEDFTLHKVWLEDAESME | -0.581
HMVEPDELTEREREVLQFVARGLSNKEIGAALALSPHTIKAHLRSILDKLHLRSRAEAAAWAVRSGLS | -0.143
HMVEPLIVRNFSINYADIDKLETKIKDYISNSDKSGVNRGRVTSDTRTNMLIVTETASKLAQVEQLLKALD | -0.181
HMVEPTDFTYLKAEVETAKALKQADYTVATWKSFAGELAEAEEVIAKTDASQAEVNEALSHLQAAEKELV | 0.175
HMVETDQESSLIQAIYKYFEITGDNTFFDEKVGEKTVADRMEWAMDYLIQNRFSEEYGLIWGA | -0.2
HMVFADRLRALRKKSGLTQDEFSKQTGIGRSAVGMYESGKREPNYTTLSKVARFYHVSTDYLLGRTDTP | -1.04
HMVFQTAAEKAYEIISKKIMKGEYEPGMRLVRRQLAQELGVSPIPILEAMKRLEQDGLIEYKAHWGSIVTI | -1.97
HMVFRFELQPSSATPLYRQIVEQVTRAVAAGVLRDGEELPSVRAVAQEYVINPMTVSKAYSLLEAQSI | -0.349
HMVFSNLGSRGEEVRQIQTKLKELGYLQGNVDGIYGNQTKQAVTAFQRDHGLSADGIAGEKTLAALGIG | 0.315
HMVGAEDISKPMNLGALMRTAHAFGASFFFTINAHPKVRHAYNSDTSRSFDHMPYYPWDTMEE | 0.129
HMVGDLPPQELRVFELIGDGLSNREIADEMILAEKTIKNYVTSLLQKLGMQRRTEAAAFAARLDER | -0.0396
HMVGDMLTQKDSEGLTAYLYQQGIISQREMLLLNGILKDRVLTGMEKGQRDSVRASMVQHLLAMLNMM | -0.848
HMVGEQISYIPLKFATASEVVKSLTSMFQQQKGIAPIRIVAEERTNAILLLASEADTARVKNLIAMMDKGV | -0.0246

Sequence | soluble fraction (log2)
HMVGGIAIGQFNVPRGSVKVTAGGRLLQEGLDYTVNYQAGRVQILDESLKNSNVPIEISTESNS | 0.229
HMVGMDRYFKIKNIKDSSAAFERDYILHFLKENDWMVSKTAQMIGLERTTLYKKIKQLGLASMLEN | -2.85
HMVGQIISNARKQEKMTQSELAEKVGTNKTYISRIEKGVIEPGVGLFFRIIDALGLKIEIVKP | -1.25
HMVHSEDLQDHKYVSQLGEVFLKENPNYENIKKSWGDHMVVIKKFGRYPHRNKILNRKSTPEELEFLKG | -0.0131
HMVILPGEKMVVKIVQPGKEKGQGVGYLADGTMIVVDSGDKMIGQDVPTEITRVFQTVAGKMLFAVPVD | -0.426
HMVIMDLIVNGEPKYVVGEQLHLILDELGYSGKHFVVELNGEILSKEAYTTTKLTAADRLEIVSFVGG | -3.5
HMVITATYTDFMDALEADEVKQVQFSSTEINYTIEKGGHVQYFKTGVVDNPQLPQILREKGVTYAAEIP | -0.0375
HMVITDPFFLEPENLVKDAVALMEKYRISGVPITKKGKLVGILTNRDLRFESNYEQPIANVMS | -0.0305
HMVITISEADVSGTYTKSITQGDWKYIRTWTPFEDERLYDLAKDPMELRDLAPAAPSKLAELRELLSALVS | -1.51
HMVIVMRKDADAASIEKVVSEVKSRGFMPHVSEGESRTLIGAIGPAPTEELREHFAGLAGVETVVRITK | 0.113
HMVKDIEFSLPLEQDYYKVLISVKDSQGKRQVYEELHRAGDTVYAAVRYYGSGELEIHLNGKFYKTIK | -0.521
HMVKDLEIETIRLNNLLASDAEEVLKSLGGAKPTYKAVAVPGSNSLVIEGTKADLIKLKSIINALEDGS | 0.0941
HMVKETNYSFFLKQIDAGTVEQVQIEDTEIKFKVSTADGKEQVYSTVRVEDPDLVDRLYSKGNIDFTGN | -0.0595
HMVKIIHYEVYANRGDGWKLVDQFSADQRQEAVNLAKEIETEDQVAVKIIREIFDVQDNTYQESVEYIG | -0.51
HMVKLDDLTGQDKATAEATITNSGLKYSEQQEFSDEVEAGKVIRTDPGAGTSSLKAGDTVTVYVSRGPEN | -0.0778
HMVKNYYEILEVDKKASPEVIEKAYKTLAKKYHPDLQEAENNGQYEEKMKEINEAYSVLSDEFKRRTYDEQ | 0.114
HMVKSYEVPDVSNLTVLEAEAKLQEMGFEIDEEQKEISSSDIESGRVVKTSPQAGSKRKEGAIITLYVSSG | 0.163
HMVKTANVAYSEFLKLVESDNISDVSIVGRTITGHLDDGTKFSTYTPPNDPSLIDKLTRKNVIIKSAPE | -0.00389
HMVKVEVKPNVLQWVIKRMDNFDRLKDQFPNIDKWINQESQPTLKQLEKLAKMTAVPLGYFFLPNPPEEK | -0.183
HMVLELRIGQIVRGVLLQLVGEREGIVSVGGVPVRARLEAEIPLGRGVMLQVQPGSDANNILLKPV | -0.515
HMVLENLKKFIDSKGISVSAFEKSIGMSNNSFRKSLNSGGHIGSDKLENILKIYPELNPVWLLQGEGEML | -0.27
HMVLGSSVAMGQKIGDSDLTWVEVPLSSAFDRFLSEPEWRGSSDLVAARLLEAGVFLTEDDVVE | 0.0949
HMVLLGAAIRELRIQKGITIEELAEMSGLSTGLISKIERDLGNPSISSLRKISRALGVPTAFFFA | -3.07
HMVLSKGAKELLDFIMREGEVTTSKVVQKFGGSAQNASAKLKKLYATGLILGSKAVAESGGLEFVYKA | 0.393
HMVLSVRERMGIVLEKVNTETFTDFKELFTVEEGRAGAIVSLLAILQLMKDSLIQLVQNEPNGPIYVKAA | -0.673
